Assay: yeast display, Sf9 membrane polyspecificity reagent, FACS + sequencing; frameworks hold sequencing errors
In short: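 Galactose-induced (36–48 hours) yeast carrying a synthetic nanobody display library were exposed to 10% biotinylated, detergent-solubilized Sf9 membrane reagent at 4 °C for 1 hour. FACS followed streptavidin microbead enrichment, using low and high (top ~1%) gates for expression (anti-HA) and reagent binding (streptavidin). Colony PCR, MiSeq 2 × 250 sequencing and CDR-length filtering followed. Labels for polyreactivity reflect the gate of origin.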

| Sequence | polyreactivity (PSR sort gate) |
| --- | --- |
| QVQLVESGGGLVQAGGSLRISCAAYGTIFSDYAMGWYKQAPGKERELVAAISSGGNTNYADSVKGRFTISRDNAKNTVYLQMNSLKPEDTAVYYCAAVYNTTYTLLPEYSDVKYYYWGQGTQVTVSS | low polyreactivity |
| QVQLVESGGGLVQAGGSLRLSWAASGGTFYFNAMGWYLQAAGKEWELVATIRYSGGSTYYADSVKGRFTISRDNAKNTAYLQMNSLKPADTAVYYCNARPRYLSPYRPFKYNYWGQGTQVTVSS | high polyreactivity |
| QVQLVESGGGLVQAGGSLRLSCAASGRIFSNNAMGWYRQAPGKERELVAAISSSGSTYYADSVKGRFTISRDNAKNTVYLQMNSLKPEDTAVYYCAVVYGYPYLRGYVYGFNYWGQGTQVTVSS | low polyreactivity |
| QVQLVESGGGLVQAGGSLRLSCAASGFIFRNYAMGWYRQAPGKERELVAVISQRGGSTYYADSVKGRFTSSRDNAKNTVYVQMNSLKPEDTAVYYGAKRKDYNRRGYDYWGQGTQVTVSS | high polyreactivity |
| QVQLVESGGGLVQAGGSLRLSCAASGRIFRDYAMGWYRQAPVKERELVAAITRSGDTTYYADSVKGRFTISRDNAKNTVYLQMNSLKPEDTAVYYCAARYVSRYYVYRGFEYWGQGTQVTVSS | high polyreactivity |
| QVQLVESGGGLVQAGGSLRLSCAASGRTLPSYSMGCYREAPGKERELFAAITGSGGRTYYADSVKGRFTISRDNAKNSVYLQMNSLKPEDTAVYYCNAYSRTWYARSYYYWGQGTQVTVSS | high polyreactivity |
| QVQLVESGGGLVQAGGSLRLSCAASGRNFGRYAMGWYRQAPGKEMELVAAISGSGGTTYYADSVKGRFTISRDNAKNTVYLQMNSLKPEDTAVYYCAARYWVGKVWKYDYWGQGTQVTVSS | high polyreactivity |
| QVQLVESGGGLVQAGGRLRLSCAASASIFRLYAMGWYRQAPGKERELVAAIRWRAGSTYYADSVKGRFTLSRDNAKNTVYLQMNSLKPEETAVNYCAADAISSAWYAKYDYWGQGTQVTGSS | high polyreactivity |
| QVQLVESGGGLVQAGGSLRLSCAASGRIFYLYAMGWYRQAPGTEREFVASITVSGSSTYYADSVKGRFTISRDNAKNTVYLQMNSLKPEDTAVYYCNTDAVRSYVWWGTSLYDYWGQGTQVTVSS | low polyreactivity |
| QVQLVESGGGLVQAGGILRLSCAASGIIFYYYAMGWYRQAPGKEMELVAGIRARGGITYYADSVKGRFTISRDNAKNTVYLLMNSLKPVDTAVYYCAKSTRPVSGVPDGPLYEYWGQGTQVTVSS | low polyreactivity |
| QVQLVESGGGLVQAGGSLRLSCAASGFTFIKYAMGWYRQATGNEREFVATISWNGGNTYYADSVKGRFTISRDNAKNTVYLQMNSLKPEDTAVYYCAARVKYRTRGGTVVSYDYWGQGTQVTVSS | high polyreactivity |
| QVQLVESGGGLVQAGGSLRLSCAASGNTFNPNAMGWYRQAPGKERELVAVIRFRGGSTYYADSVKGRFTISRDNAKNTVYLQMNSLKTEDTAVYDCAADFLYYYLRYYYWGQGTQVTVSS | high polyreactivity |
| QDQLVESGGGLVQAGGSLRLSCAASGFTFNTYAMGWNRQAPGKERELVDAISKSGTRTYYADSVKGRFTISRDNAKNTVYLQMKSLKPEVTAVYYCAAEALYYYRLGWVYLRYDYWGQGTQVTVSS | high polyreactivity |
| QVQLVESGGGLVQAGGSLRLSCAASGRIIATNAMGWNRQAPGKERELVATITRSAGRTYYADSVKGRFTISRDNAKNTVYLHMNSLKPEDTAVYYCAASYWYTEPGYREYDYWGQGTQVTVSS | low polyreactivity |
| QVQLVESGGGLVQAGGSLRLSCAASGNIFGGNAMGWYRQAPGKERELVAAMTRGGSTYYADSVKGRFTISRDNAKNTVYLQMNSLKPEATAVYYCAKSYRLRSDYDYWGQGTQVTVSS | low polyreactivity |
| QVQLEESGGGLVQAGGSLRLTCAASGFIFQYYTMGWYRQAPGKERELVASITGTGGSTYYADSVKGRFTISRDNAKNTVYLQMNSLKPEDTAVYYCAAREGWGYEYDYWGQGTQVTVSS | high polyreactivity |
| QVQLVESGGGLVQAGGSLRLSCAASGSIFIGYAMGWYRQAPGKERELVASIRNGGSTNYADSVKGRFTITRDNAKNTVYLQMNSLKPEDTAVYYCAGRYPVFLVSFGFDYWGQGTQVTVSS | low polyreactivity |
| QVQLVESGGGLVQAGGSLRLSCAASGFTFGYYTMGWYRQAPGKERELVAAISWSGDSTYYADSVKGRFTISRDNAKNNVYLQMNSLKPEDTAVYYCAAAVYGSWPDYDYWGQGTQVTVSS | low polyreactivity |
| QVQLVESGGGLVQAGGSLRLSCAASGLIFDKYAMGWYRQAPGKERELVAAITRSSGTTYYADSVKGSFTISRDNAKNTVYLQMNSLKPEDTAVYYCATDVDKSLYDYWGQGTQVTVSS | low polyreactivity |
| QVQLVESGGGLVQAGGSLRLSCAASGRTLAFNAMGWYRQAPGKERELVAVIRNGTSTNYADSVKGRFTISRDNAKNTVYLQMNSLKPEDTAVYYCNVPYYLPSYLSGYDYWGQGTQVTVSS | low polyreactivity |
| QVQLVESGGGLVQAGGSLRLSCAASGSIFGVNAMGLYRQAPGKERELVASISLSDDRTYYADSVKGRFTISRDNAKNTVYLQMNSLKPEDTAVYYCARRILWYWDVYPSLAEYDYWGQGTQVTVSS | low polyreactivity |
| QVQLVQSGGGLVQAGGSLRLSCAASGSIFLYYVMGWYRQAPGQERELVAAITWDGGSTYYADSVKGRFTISRDNAKNTVYLQMNSLNPEDTAVYFCAARVASKYLVYRKRPSRYDYWGQGTQLTVSS | low polyreactivity |

| Sequence | polyreactivity (PSR sort gate) |
| --- | --- |
| QVQLVESGGGLVQAGGSLRLSCAASGRILWYYAMGWYRQAPGKERELVASISWSGGRTYYADSVKGRFTISRDNAKNTVYLQMNSLKPEDTAVYYCAAQLTRWRKPGDMEYWGQGTQVTVSS | high polyreactivity |
| QVQLVESGGGLVQAGGSLRLSCAASGSSFAKYAMGWYRQAPGKERELVATISWSGTSTYYADSVKGRFTISRDNAKNTVYLQMNSLKPEDTAVYYCDADTECVGVNHIYDYWGQGNQVTVSS | low polyreactivity |
| QVQLVESGGGLVQAGGSLRLSCAASGFIFGFYAMGWYRQAPGKERELVAAITSDGGTYYADSVKGRFTISRDNAKNTVYLQMNSLKPEDTAVYYCAADVLYEVFSWYVGYDYWGQGTQVTVSS | low polyreactivity |
| QVQLVESGGGLVQAGGSLRLSCAASGGIFRYSAMGWYRQAPGKERELVATDGDTYYADSVKGRFTISRDNAKNTVYLQLNSLKPEDTAVYYCAAEPVRYYAMEYWGQGTQVTVSS | low polyreactivity |
| QVQLVESGGGLVQAGGSLRLSCAASGIIFYYNAMGWYRQAPGKERELVAAISWSGGSTYYADSVKGRFTISRDYAKNSVYLQMNSLKTEDTAVYYCAADYYWRVHYGYWGQGTQVTVSS | high polyreactivity |
| QVQLVESGGGLVQAGGSLRLSCAASGFIFDFYAMGWYRQAPGKERELVATINSSGTTNYADSVKGRFTISRDNAKNTVYLEMISLKPEDTAVYDCATVEYLGHYTYDYWGQGTQVTVSS | low polyreactivity |
| QVQLVESGGGLVQAGGSLRLSCAASGSIFRVYAMGWYRQAPGKVRELVAVISIAGRTNYADSVKGRFTISRDNAKNTVYLQMNSLKPEDTAVYYCNAEWDLNHLYDSWGQGTQETVSS | low polyreactivity |
| QVQLVESGGGLVQAGGSLRLSCAASGIILDRNAMGWYRQAPGKERELDAAINSIGGSTYYADSVKGRFTISRDNAKNTVYLQMNSLKPEDTAVYYCAAPSTSSYYWGQGTQVTVSS | low polyreactivity |
| QDQLVESGGGLVQAGGSLRLSCAASGRIFGWYAMGWYRQAPGKERELVAAISNDGSTNYADSVKGRFTISRDNAKNTVYLQMNSLKPEDTAVYYSAARFYRSSYGWYGYWGQGTQVTVSS | high polyreactivity |
| QLQLVESGGGLVQAGGSLRLSCAASGRIRYIAIGWYRQAPWKERELVAAITSSGGSTYYADSVKGRFTISRDNAKYTVDLQMNRLKPEDTAVYYCNAVASLSVDYWGQGTQVTVSS | high polyreactivity |
| QVQLVESGGGLVQAGGSLRLSCAPSGSILWQYAMGWYRQAPGKERELVAAITYSGGSTHYADSVKGRFTISRDNAKNTVYLQMNSLKPEETAVYYCAAGYWYRYAALRYDHWGQGTQVTVSS | low polyreactivity |
| QVQLVESGGGLVQAGGSLRLSCAASGFIFAFYDKGWYRQAPGKERELVAAISWGGSTYYADSVKGRVTISRDNAKNTVYLQMNSLKPEDTAVYYCAARLSRSYLYGYWGQGTQVTVSS | high polyreactivity |
| QVQLVESGGGLVQAGGSLRLSCAASGRIFWINAMGWYRQAPGKERELVATISSGSTSYADSVKGRFTISRDNAKNTVYLHLNSLKPEDTAVYYCAVSLRYTRSGAYYYWGQGTQVTVSS | low polyreactivity |
| QVQLVESGGGLVQAGGSLRLSCAASGRTFRYYAMGWYRQAPGKERELVAAISWNGANTYYADSVKGRFTISRDNAKNTVYLQMNSLKPEDTAVYYCAATYYRWKGYDYWGQGTQVTVSS | high polyreactivity |
| QVQLVESGGGLVQAGGSHRLSCAASGLTFRRNAMGWYRQAPGKERELVAAISGSGGSTYYADSVKGRFTISRDNAKNTVYLQMNSLKPEDTAVYYCAADDGIVAYGYWGQGTQVTVSS | high polyreactivity |
| QVQLEESGGGLVQAGGSLRLSCAASGGIFYGYAMGWNRQAPGIERELVAAISDSGGSTYYADSVKGRFTISRDNAKNTVFLQLNSLNPEDTAVYYCATDARVGGYVSEGDFWGQGTQVTVSW | low polyreactivity |
| QVQLVESGGGLVQAGGSLRLTWAASGSTYESNAMGWYRPAPGKERELVAAISSSGGSTYYADSVKGRFTITRDNAKNTVYLQMNSLKPEDTAVYYGNKGGLSDYDYWGQGTQVTVSS | high polyreactivity |
| QVQLVESGGGLVQAGGSLRLSCAASGSIFVGYAMGLYRQAPGKERELVAAISASGGRTYYADSVKGRFTISRDNAKNTVYLQMNSLKPEDTAVYYCATDDYWGRGTQVTVSS | high polyreactivity |
| QVQLVESVGGLVQAGGSLRLSCAASGLILRFYAMVWYRQAPGKERELVAAISRNGGSTYYADSVKGRFTISRDNAKNTVYLQMNSLKPEDTAVYYCAVEYYVSWKLDYWGQGTQVTVSS | high polyreactivity |
| QVQLVESGGGLVQAGVSLRLSCASTGLTFRYYAMGWYRQAPGKERELVAAISSGTGTYYADSVKGRFTISRDNAKNTVYLQMNSLKPEDTAVYYCAAVFFRARVIRGYNYWGQGTQVTVSS | high polyreactivity |
| QVQLVESGGGLVQAGGSLRLICAASGSTFYEYAMGWYRQAPGKERELVAAISSNGARTYYADSVKVRFTISRDNAKNTVYLQMISLKPEDTAVYYCALVYRYAHTKYDYWGQGTQVTVSS | high polyreactivity |

Source: the nanobody polyreactivity screen of Harvey et al. (2022)
